The nanobody polyreactivity screen of Harvey et al. (2022)

Test: yeast display, Sf9 membrane polyspecificity reagent, FACS + sequencing; frameworks hold sequencing errors
Procedure, shortened: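 Nanobodies came from a synthetic yeast display library in Saccharomyces cerevisiae BJ5465, induced with galactose for 36–48 hours and stained for 1 hour at 4 °C with 10% biotinylated, detergent-solubilized Sf9 membrane reagent. Cells were enriched on streptavidin microbeads and then FACS-sorted, with low and high (top ~1%) gates set on anti-HA fluorescence for expression and streptavidin fluorescence for reagent binding. Each polyreactivity label reflects the gate a clone came from. Genes were amplified by colony PCR, sequenced by MiSeq 2 × 250 and filtered by CDR length.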

Sequence	polyreactivity (PSR sort gate)
QVQLVESGGGLVQAGGSLRLSCAASGFTFGPYVKGWYRQAPGKERELVAAISKSGGSTYYADSVKGRFTISRDYAKNTVYLQMNSLKPEDTAVYYCATDYLGGGKRYYYWGQGTQVTVSS	high polyreactivity
QVQLVESGGGLVQAGGSLRLSCAASGFTFGQYAMGWYRQAPGKERELVAAIRWSGGSSYYADSVKGRFTISRDNAKNTVYLQMNSLKPEDTAVYYCAARRFDGYEYDYWGQGTQVTVSS	low polyreactivity
QVQLVESGGGLVQAGGSLRLSCAASGFTFGQYAMGWYRQAPGKERELVAAITGSGGRTYYADSVKGRFTISRDNAKNTVYLQMNSLKPEDTAVYYCNARVPLRHYSNYYWGQGTQVTVSS	high polyreactivity
QVQLVESGGGLVQAGGSLRLSCAASGFTFGRNAMGWYRQEPGKERELVATISKSGGSTYYADSVKGRFTISRDNAKNTVYVQMNSLKPEDTAVYYCADRSRRLPGDYWGQGTQVTVSS	low polyreactivity
QVQLVESGGGLVQAGGSLRLSCAASGFTFGRTVRGWYRQAPGKERELVAAISSSGGSTYYADSVKGRFTISRDNAKNTVYLQMNSLKPEDTAVYYCAAVLVSWYRNPQYDYWGQGTQVTVSS	high polyreactivity
QVQLVESGGGLVQAGGSLRLSCAASGFTFGRYALGWYRQAPGKERELVAAISFSGGRTYYADSVKGRFTISRDKAKNTVYLQMNSLKPEDTAVYYCAARRRQEHVGRSSYARYDYWGQGTQVTVSS	high polyreactivity
QVQLVESGGGLVQAGGSLRLSCAASGFTFGRYAMGWYRQAPGKERELVAGISSGGRTNYADSVKGRFTISRDNAKNTVYLQMNSLKPEDTAVYYCNARWYRYPPRVRLYYWGQGTQVTVSS	high polyreactivity
QVQLVESGGGLVQAGGSLRLSCAASGFTFGSNAMGWYRQAPGKERELVAAISYSGTRTYYADSVKGRFTISRDNAKNTVYLQMNRLKPEDTAVNYCAAGFRKTQFNVRYDYWGQGTQVTVSS	high polyreactivity
QVQLVESGGGLVQAGGSLRLSCAASGFTFGSNAMGWYRQAPGKERELVAAITWDGGSTYYADSVKGRFTISRDNAKNTVYLQMNSLKPEDTAVYYCARYLYATYGKYNYWGQGTQVTVSS	high polyreactivity
QVQLVESGGGLVQAGGSLRLSCAASGFTFGSNTMGWYRQAPGKERELVAAITTSGDSTYYADSVKGRFTISRDHAKNTVYLQMNSLKPEDTAVYYCAAERRYGRYYRLVRLLGQGTQVTVSS	high polyreactivity
QVQLVESGGGLVQAGGSLRLSCAASGFTFGSNTMGWYRQAPGKERELVAAITYTGGRTYYADSVKGRFTISRDNAKNTVYLQMNSLKPEDTAVYYCAAEYHFWSYSPGYDYWGQGTQVTVSS	high polyreactivity
QVQLVESGGGLVQAGGSLRLSCAASGFTFGSNVMGWYRQAPGKERELVAAIRGRGGSTYSADSVKGRFTISRDNAKNTVYLQMNSLKPEDTAVYYCNAVQRYQMGYCGQGTQVTVSS	high polyreactivity
QVQLVESGGGLVQAGGSLRLSCAASGFTFGSYAMGWYRQAPGKEREFVAAIRRSGSSTYYADSVKGRFTISRDYAKNTVYLQMNSLKPEDTAVYYCAADVYRRLRRYRYYYWGQGTQVTVSS	low polyreactivity
QVQLVESGGGLVQAGGSLRLSCAASGFTFGSYAMGWYRQAPGKERELVARISSDGSTNYAVSVNGRFTISRDNAKNTVYLQMNSLKPEDTAVYYCAADPVHRFPGTGGYWGQGTQVTVSS	low polyreactivity
QVQLVESGGGLVQAGGSLRLSCAASGFTFGSYAMGWYRQAPGKERELVAVITRSGRTNYADSVKGRFTISRDNAKNTVYLLMNSLKPEDTAVYYCNADDVDDEVSPDLTEMDYWGQGTQVTVSS	low polyreactivity
QVQLVESGGGLVQAGGSLRLSCAASGFTFGSYAMGWYRQAPGKERELVAVITRSGRTNYADSVKGRFTISRDNAKNTVYLQMNSLKPEDTAVYYCNADDVDDEVSPDLTEMDYWGQGTQVTVSS	low polyreactivity
QVQLVESGGGLVQAGGSLRLSCAASGFTFGSYAMGWYRQAPGTERELVAAISCSGGSTYYADSVKGRFTISRDNAKNTVYLQMNSLKPEDTAVYYCAVRYPLYRMDYWGQGTQVTVSS	high polyreactivity
QVQLVESGGGLVQAGGSLRLSCAASGFTFGTNAMGWYRQAPGKEMELVAAITWSGGRTYYADSVKGRFTISRDNAKNTVYLQMNSRKQEDTAVYYCAKQYYRNKYEYWGQGTQVTVSS	high polyreactivity
QVQLVESGGGLVQAGGSLRLSCAASGFTFGTYAMGWYRPAPGKERELVAAITRRGDNTYYADSVKGRFTISRDNAKNTVYLQMNSLNPEDTAVYYCIAAKGGRYPDYDYWGQGTQVTVSS	high polyreactivity
QVQLVESGGGLVQAGGSLRLSCAASGFTFGTYAMGWYRQAPGKERELVASIRTDDSTYADSVKGRFTISRDNAKNTVYLQMNSLKPEDTAVYYCAVDGYVIYVYDTYDYWGQGTQVTVSS	low polyreactivity
QVQLVESGGGLVQAGGSLRLSCAASGFTFGVYAMGWYRQAPGKERDLVAAISTTVGSTYYADSVKGRFTISRDNAKNTVYLQMNSLKPEDTAVDYCAAEYTGYINYYIYEYWGQGTQVTVSS	low polyreactivity
QVQLVESGGGLVQAGGSLRLSCAASGFTFGVYAMGWYRQAPGKERELDAAISTTVGSTYYADSVKGRFTISRDNAKNTVYLQMNSLKPEDTAVYYCAAEYTGYINYYIYEYWGQGTQVTVSS	low polyreactivity

Sequence	polyreactivity (PSR sort gate)
QVQLVESGGGLVQAGGSLRLSCAASGFTFGYNAMGWYRQAPGKERELVAAISRSGGRTYYADSVKGRFTISRDNAKNTVYLQMNSLKPEDTAVYYCARRYRDYGRYGYWGQGTQVTVSS	high polyreactivity
QVQLVESGGGLVQAGGSLRLSCAASGFTFGYNAMGWYRQAPGKERELVAAITSGGSTNYADSVKGRFTISRDNAKNTVYLQMNSLKPEDTAVYYCATGVRPWRKKPVEFYHRGQGTQVTVSS	low polyreactivity
QVQLVESGGGLVQAGGSLRLSCAASGFTFGYNAMGWYRQAPGKERELVAVINKSGGSTYYADSVKGRFTISRDNAKNTVYLQMNSLKPEDTAVYYCAATYNGWKRYYYWGQGTQVTVSS	high polyreactivity
QVQLVESGGGLVQAGGSLRLSCAASGFTFGYYAMGWSRQAPGKERELVAAISWSGSRTYYADSVKGRFTISRDNAKNTVYLQMNSLKPEDTAVYYCAAQRYRYLYTSTGWQRYDYYYWGQGTQVTVSS	high polyreactivity
QVQLVESGGGLVQAGGSLRLSCAASGFTFGYYAMGWYRQAPGKERELVAAINWSGVNTNYADSVKGRFTISRDNEKNTVYLQMNSLKPEDTAVYYCAADAGYDGYGYWGQGTQVTVSS	low polyreactivity
QVQLVESGGGLVQAGGSLRLSCAASGFTFGYYAMGWYRQAPGKERELVAAISSSGGSTYYADSVKGRFTISRDNAKNTVYLQMNSLKQEDTAVYYCSTGFLQNYYKYSSSFRFYYWGQGTQVTVSS	high polyreactivity
QVQLVESGGGLVQAGGSLRLSCAASGFTFGYYAMGWYRQAPGKERELVASISSGGSTNYADSVKGRFTISRDNAKNTVYLQMNSLKPEDTAVYYCNKRAYYGRYDYWGQGTQVTVSS	high polyreactivity
QVQLVESGGGLVQAGGSLRLSCAASGFTFGYYAMGWYRQAPRKERELVAAISSSSGRTHYADSVKGRFTISRDNAKNTVYLQMNSLKPEDTAVYYCAAEFYYLYYYWGQGTQVTVSS	high polyreactivity
QVQLVESGGGLVQAGGSLRLSCAASGFTFHGYTMGWYRQAPGKERELVAAITSGGGTNYADSVKGRFTISRVNAKNTVYLQKNSLKPEDTAVYYCAAVGTVPRKQRYHSYIDYDYWGQGTQVTVSS	low polyreactivity
QVQLVESGGGLVQAGGSLRLSCAASGFTFHNNVMGWYRQATGKERELVATISKSGGSTYYADSVKGRFTISRDNAKNTVYLQMNSLKPEDTAVYYCARRYRDYDYWGQGTQVTVSS	high polyreactivity
QVQLVESGGGLVQAGGSLRLSCAASGFTFHRYAMGWYRQAPGKERELVAAISSRGGSTYYADSVKGRFTISRDNAKNTVYLQMNSLKPEDTAVYYCAARWPHRYYSSYYGYDYWGQGTQVTVSS	high polyreactivity
QVQLVESGGGLVQAGGSLRLSCAASGFTFHTYAMGWYRQAPGKERELVAAIDSSGGITYYADSVKGRFTISRDTAKNTVYLQMNSLKPEDTAVYYCAAVFLLFGFEWSYDYWGQGTQVTVSS	low polyreactivity
QVQLVESGGGLVQAGGSLRLSCAASGFTFHYNAMGWYRQAPGKERELVAAITSGGSTYYADSVKGRFTISRDNAKNTVYLQMNSLKPEDTAVYYCNKLYYRYHHNYDYWGQGTQVTVSS	high polyreactivity
QVQLVESGGGLVQAGGSLRLSCAASGFTFIDYAMGWSRQAPGKERELVAAITRDGGSTYYADSVKGRFTISRDNANNTVYLQMNRLKPEDTAVYYCATVRRVQHWVWYWLWRYDYWGQGTQVTVSS	high polyreactivity
QVQLVESGGGLVQAGGSLRLSCAASGFTFIFNAMGWYREAPGKERELVAAITWGGASTDYADSVKGRFTISRDNAKNTVNLQMKSLKPEDTAVYYCAKDNWDNPRPTSEMDYWGQGTQVTVSS	low polyreactivity
QVQLVESGGGLVQAGGSLRLSCAASGFTFIGYAMGWNRQAPGKERELVADITYSGSSTYYADSVKGRFTISRDNAKNTVYFQMNSLKPEDTAVYYCAAEAYYYWFDVVYWGQGSQVTVSS	low polyreactivity
QVQLVESGGGLVQAGGSLRLSCAASGFTFIGYAMGWSRPAPGKERELVAAITWRGGRTYYADSVKGRFSISRDNAKNTVYLQMNSLKTEETAVYYCAADGYTVGNSYYWGHGTQVTVSS	high polyreactivity
QVQLVESGGGLVQAGGSLRLSCAASGFTFIGYAMGWYRQAPGKERELVAAITQSGGSTFYADSVKGRFTISRDNAKNTVYLQMNSLKPEDTAVYYCNAYRKFRYWGQGTQVTVSS	low polyreactivity
QVQLVESGGGLVQAGGSLRLSCAASGFTFIHYGMGWYRQAPGKERELVAAISSRGGRTYYADSVKGRFTISRDNAKNTVYLQMNSLKPEDTAVYYCNRDYAVISYGEYDSWGQGTQVTVSS	high polyreactivity
QVQLVESGGGLVQAGGSLRLSCAASGFTFIKNAMGWYRPAPGKERELVAAINSGGRTYYADSVKGRFTISRDNAKNTVYFQMNSLIPEDTAVYYCAARYTRDYYWGQGTQVTVSS	high polyreactivity
QVQLVESGGGLVQAGGSLRLSCAASGFTFIKYAMGWYRQAPGKEREFVATISWNGGNTYYADSVKGRFTISRDNAKNTVYLQMNSLKPEDTAVYYCAARVKYRTRGGTVVSYDYWGQGTQVTVSS	high polyreactivity
